# Biological target: carcinoembryonic antigen (CEA) (UniProt P06731 35-685)
# Experiment: amperometric aptasensor (electrode-immobilized aptamer, HRP-CD label); HRP-CD, H2O2; detection range 10 pg/mL to 1 ng/mL, LOD 3.1 pg/mL (not a Kd); Aptamer electrode washed in 20 mM Tris-HCl pH 7.4, 100 mM NaCl, 5 mM MgCl2; casein block; read-out in 0.1 M sodium phosphate pH 7.4 with H2O2; CEA incubation buffer and temperature not in the material
# Conditions: protein: commercial; label: 5' thiol on gold nanoparticles; 3' adamantane for HRP-cyclodextrin; hairpin
# Sequence of carcinoembryonic antigen (CEA) (P06731 35-685): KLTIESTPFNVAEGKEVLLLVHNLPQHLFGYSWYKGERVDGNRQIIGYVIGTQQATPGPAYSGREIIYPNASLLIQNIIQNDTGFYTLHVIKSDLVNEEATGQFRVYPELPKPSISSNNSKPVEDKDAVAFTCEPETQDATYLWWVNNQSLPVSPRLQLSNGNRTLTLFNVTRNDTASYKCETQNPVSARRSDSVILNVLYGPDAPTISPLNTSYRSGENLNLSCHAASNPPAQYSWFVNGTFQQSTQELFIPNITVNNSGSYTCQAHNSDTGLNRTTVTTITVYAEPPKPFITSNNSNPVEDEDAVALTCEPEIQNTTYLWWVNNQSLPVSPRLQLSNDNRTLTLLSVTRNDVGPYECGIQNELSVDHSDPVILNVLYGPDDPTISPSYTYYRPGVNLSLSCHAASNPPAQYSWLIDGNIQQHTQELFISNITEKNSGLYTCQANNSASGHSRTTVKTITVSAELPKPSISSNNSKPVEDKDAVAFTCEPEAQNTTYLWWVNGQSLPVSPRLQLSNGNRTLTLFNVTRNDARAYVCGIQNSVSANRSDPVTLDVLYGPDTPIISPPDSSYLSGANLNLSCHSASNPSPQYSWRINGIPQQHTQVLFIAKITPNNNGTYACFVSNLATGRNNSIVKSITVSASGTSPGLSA
binder,measurement,value
"CCACGATACCAGCTTATTCAATTCGTGG (structured_DNA, 5'-HS-(CH2)6; 3'-(CH2)6-NH2 converted to adamantane (ADA)) [Apt-ADA (anti-CEA aptamer)]",binding result,binds

# Reference: article PMC9313153, “Supramolecular Enzymatic Labeling for Aptamer Switch-Based Electrochemical Biosensor”
